For one substance, inhibition of PACAP27-stimulated GTPγ-35S binding to membranes of PAC1-expressing CHO cells, IC50 results are on record in US20100112601A1.

This assay has as its target PAC1 receptor expressed in Chinese hamster ovary (CHO) cells (UniProt P41586). The assay can be described thus: cell-based or functional assay.
Sequence of UniProt P41586 (P41586 21-468 limits assumed): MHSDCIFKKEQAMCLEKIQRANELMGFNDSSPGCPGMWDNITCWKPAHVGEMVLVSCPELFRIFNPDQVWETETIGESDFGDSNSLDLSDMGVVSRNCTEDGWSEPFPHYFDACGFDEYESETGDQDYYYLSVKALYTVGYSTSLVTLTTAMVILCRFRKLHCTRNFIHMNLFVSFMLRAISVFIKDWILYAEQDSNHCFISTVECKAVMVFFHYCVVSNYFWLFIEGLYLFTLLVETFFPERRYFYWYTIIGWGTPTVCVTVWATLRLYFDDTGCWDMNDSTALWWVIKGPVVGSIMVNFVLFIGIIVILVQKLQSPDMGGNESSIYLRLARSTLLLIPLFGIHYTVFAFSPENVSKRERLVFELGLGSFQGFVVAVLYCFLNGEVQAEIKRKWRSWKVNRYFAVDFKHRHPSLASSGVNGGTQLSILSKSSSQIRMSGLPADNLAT

The substance “PACAP(6-38)NH2 (from UniProt P18509 87-119) (peptide)” gave an inhibition of PACAP27-stimulated GTPγ-35S binding to membranes of PAC1-expressing CHO cells, IC50 of 100 nM.
